Experimental findings from US20260234247A1 (published 2026) are described below.

Usually EC50 stands for the midpoint of the concentration-response curve. A higher EC50 goes with lower potency in that assay.

The target of test [1] is T1, Rhesus LILRB1 (F7H3G7) on CHOK1 cells (rhesus macaque).
T1 construct: whole, on cells; also called CHOK1-Rhesus LILRB1 (F7H3G7)
The test is described as follows: flow cytometry on CHOK1-rhesus LILRB1 (F7H3G7) cells.

Test [2] addresses T2, Cynomolgus LILRB2 on CHOK1 cells (cynomolgus).
T2 construct: whole, on cells; also called CHOK1-Cyno LILRB2
The test can be described thus: flow cytometry on CHOK1-cyno LILRB2 cells.
Text: Anti-LILRB1 and anti-LILRB2 antibodies were also screened for their ability to bind rhesus macaque LILRB1 (Kactusbio, LLC: LIL-CM1B1 and LIL-CM1B3), cynomolgus LILRB1 (Kactusbio, LLC: LIL-CM1B2) and cynomolgus LILRB2 (Kactusbio, LLC: LIL-CM1B5) by ELISA and flow cytometry.

The target of a further test is T3, human LILRB5 (human, UniProt O75023 24-458).
T3 construct: bought protein coated for ELISA; also called hLILRB5
The test is described as follows: ELISA, OD450, antibody at 200 nM; + = 2-fold over ISO. A general note: ELISA stands for enzyme-linked immunosorbent assay.

Another test addresses T4, human LILRB3 (human, UniProt O75022 24-443).
T4 construct: bought protein coated for ELISA; also called hLILRB3
The test is described as above.

The target of another test is T5, human LILRA2 (human, UniProt Q8N149 24-449).
T5 construct: bought protein coated for ELISA; also called hLILRA2
The test is described as above.

The target of test [3] is T6, human LILRA1 (human, UniProt O75019 17-461, limits assumed).
T6 construct: Bought protein; also called hLILRA1
The test is described as follows: ELISA, antibody at 200 nM, OD450; + = 2-fold over ISO.
T6 sequence (O75019 17-461 limits assumed): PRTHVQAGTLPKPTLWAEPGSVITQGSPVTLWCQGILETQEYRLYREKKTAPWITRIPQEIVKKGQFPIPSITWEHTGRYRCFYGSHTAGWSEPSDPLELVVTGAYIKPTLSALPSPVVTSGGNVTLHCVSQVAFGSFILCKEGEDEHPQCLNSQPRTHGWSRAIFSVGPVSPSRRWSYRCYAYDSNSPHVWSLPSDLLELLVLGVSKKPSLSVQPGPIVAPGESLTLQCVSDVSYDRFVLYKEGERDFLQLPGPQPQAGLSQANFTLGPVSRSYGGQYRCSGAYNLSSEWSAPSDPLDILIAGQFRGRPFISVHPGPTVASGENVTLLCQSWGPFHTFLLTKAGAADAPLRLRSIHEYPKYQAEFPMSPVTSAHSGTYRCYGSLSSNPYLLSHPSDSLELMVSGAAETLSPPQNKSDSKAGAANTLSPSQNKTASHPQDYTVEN
Experimental: (§1) To further confirm binding affinity, selected clones were assayed in ELISA or FACS in a range of testing concentrations.

The target of test [4] is T7, human LILRA1 (human, UniProt O75019 17-461, limits assumed).
T7 construct: bought protein coated for ELISA; also called hLILRA1
The test is described as follows: ELISA, OD450, antibody at 200 nM; + = 2-fold over ISO.
T7 sequence (O75019 17-461 limits assumed): as above
Experimental: as §1

Another test has as its target T8, human LILRA3 (human, UniProt Q8N6C8 24-439).
T8 construct: bought protein coated for ELISA; also called hLILRA3
The description is as above.

A further test addresses T9, human LILRB4 (human, UniProt Q8NHJ6 22-259).
T9 construct: Bought protein; also called hLILRB4
The test can be described thus: ELISA, antibody at 200 nM, OD450; + = 2-fold over ISO.

T5 sequence (Q8N149 24-449 limits assumed): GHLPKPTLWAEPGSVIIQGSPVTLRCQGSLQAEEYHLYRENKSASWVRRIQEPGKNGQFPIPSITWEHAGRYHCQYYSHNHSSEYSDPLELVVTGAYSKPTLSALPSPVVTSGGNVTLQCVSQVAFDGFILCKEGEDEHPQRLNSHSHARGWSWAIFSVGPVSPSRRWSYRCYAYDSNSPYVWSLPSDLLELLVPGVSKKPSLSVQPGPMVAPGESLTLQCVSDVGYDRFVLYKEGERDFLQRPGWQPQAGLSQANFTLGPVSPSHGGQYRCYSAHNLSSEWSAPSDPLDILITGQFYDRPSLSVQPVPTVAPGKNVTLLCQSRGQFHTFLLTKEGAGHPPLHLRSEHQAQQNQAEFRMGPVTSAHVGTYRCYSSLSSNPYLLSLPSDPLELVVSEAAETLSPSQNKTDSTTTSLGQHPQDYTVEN
T3 sequence (O75023 24-458 limits assumed): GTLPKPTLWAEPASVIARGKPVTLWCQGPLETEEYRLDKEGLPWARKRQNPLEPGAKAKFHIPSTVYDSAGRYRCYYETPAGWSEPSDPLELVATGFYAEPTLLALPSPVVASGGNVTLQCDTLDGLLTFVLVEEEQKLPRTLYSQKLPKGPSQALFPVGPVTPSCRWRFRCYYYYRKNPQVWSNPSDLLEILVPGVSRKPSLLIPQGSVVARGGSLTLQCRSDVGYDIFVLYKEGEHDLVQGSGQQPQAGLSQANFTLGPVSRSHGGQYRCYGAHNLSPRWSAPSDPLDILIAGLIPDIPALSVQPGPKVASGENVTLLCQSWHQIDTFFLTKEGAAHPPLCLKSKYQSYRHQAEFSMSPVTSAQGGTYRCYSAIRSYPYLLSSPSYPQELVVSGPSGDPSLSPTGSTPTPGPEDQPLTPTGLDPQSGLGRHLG
T8 sequence (Q8N6C8 24-439 limits assumed): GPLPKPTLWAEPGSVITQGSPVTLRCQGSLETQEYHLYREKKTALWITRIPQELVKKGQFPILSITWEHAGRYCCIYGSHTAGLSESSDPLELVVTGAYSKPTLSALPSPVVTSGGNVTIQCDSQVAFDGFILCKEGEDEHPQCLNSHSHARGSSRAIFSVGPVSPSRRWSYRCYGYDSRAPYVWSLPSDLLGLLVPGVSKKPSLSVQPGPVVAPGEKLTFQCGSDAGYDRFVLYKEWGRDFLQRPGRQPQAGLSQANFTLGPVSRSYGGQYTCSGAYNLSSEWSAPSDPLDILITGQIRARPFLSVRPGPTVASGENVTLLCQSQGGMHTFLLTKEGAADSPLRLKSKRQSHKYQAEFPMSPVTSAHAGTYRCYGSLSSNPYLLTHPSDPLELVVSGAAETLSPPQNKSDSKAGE
Experimental for human LILRA2: as §1
Experimental for human LILRA3: as §1
Experimental for human LILRB3: as §1
Experimental for human LILRB4: as §1
Experimental for human LILRB5: as §1

B1: 15G8 (antibody, human IgG4 S228P, kappa, V domains shown)
VH: DVQLQGSGPGLVKPSETLSLTCSVTGYSITSGYYWNWIRQFPGKKLEWMGYISYDGSNNYNPSLKNRITISRDTSKNQFSLKLNSVTAADTATYYCAHGYSYYYAMDAWGQGTSVTVSS
VL: DIQMTQSPSSLSASVGDRVTITCRTSQDISNYLNWYQQKPGKAVKLLISYTSRLHSGVPSRFSGSGSGTDYTLTISSLQPEDFATYYCQQGNTLPTFGQGTKLEIKR
B1: the concentration for a half-maximal effect (EC50) is 760 nM in [1] and 2.15 nM in [2].

B2: LK-RB1-35 (antibody, human IgG4 S228P, kappa, V domains shown)
VH: DVQLQESGPGLEKPSQSLSLTCSVTGYSITRGYQWNWIRQFPGNKLEWMGYISYDGSNNYNPSLKNRISITRDASKNQFFLKLNSVTTEDTATYYCARRSYNSIDYWGQGTTLTVSS
VL: DIVLTQSPATLSVTPGDSVSLSCRASQSISSNLHWYQQKSHESPRLLIKYASQSISGIPSRFSGSGSGTDFTLSINSVETEDFGMYFCQQSNSWPLTFGAGTKLELKR
notes: anti-LILRB1 clone from mouse hybridoma
For B2, the binding result with human LILRB5 and with human LILRB3 was “binds” in each case.

B3: LK-RB1-36 (antibody, human IgG4 S228P, kappa, V domains shown)
VH: DVQLQESGPGLEKPSQSLSLTCSVTGYSITRGYQWNWIRQFPGNKLEWMGYISYDGSNNYNPSLKNRISIIRDTSKNQFFLKLNSVTTEDTATYYCARRSYNSIDYWGQGTTLTVSS
VL: DIVLTQSPATLSVTPGDSVSLSCRASQSISNNLHWYQQKSHESPRLLIKYASQSISGIPSRFSGSGSGTDFTLSINSVETEDFGMYFCQQSNSWPLTFGAGTKLELKR
notes: as for B2
As for B3, the binding result with human LILRB5 and with human LILRB3 was “binds” each time.

B4: LK-RB2-47 (antibody, human IgG4 S228P, kappa, V domains shown)
VH: QVQLKQSGPGLVQPSQSLSITCTVSGFSLISYGVHWVRQSPGKGLEWLGVIWSGGSTDYNAAFISRLSISKDNSKSQVFFKMNSLQADDTAIYYCARSFHYHGSTFDYWGQGTTLTVSS
VL: DIQMTQTTSSLSASLGDRVIISCRASQDINNYLNWYQQKPDGTVKLLIYFTSRLHSGVPSSFSGSGSGTDYSLTINNLEQEDIATYFCQQVNTLPYTFGGGTKLEIKR
notes: Anti-LILRB2 antibody
In test [2], B4 registered an EC50 of 0.4 nM.

B5: LK-RB1-33 (antibody, human IgG4 S228P, kappa, V domains shown)
VH: QIQLVQSGPELKKPGDTVKISCKASGYTFTSYGMNWVKQAPGEGLKWMGWINTYSGVPTYGDDFKGRFAFSLETSASTAYLQINNLENEDTATYFCARRGRDSVVGHFDVWGTGTTVTVSS
VL: DIVMTQSHKFMSTSVGDRVSITCKASQDVNTAVAWYQQKPGQSPKLLIYWASTRHTGVPDRFTGSGSGTDFTLTISSVQAEDLALYYCQQHYTIPFTFGSGTRLEIKR
notes: as for B2
For the molecule B5, the binding result with human LILRA2 is on record as “binds”.

B6: LK-RB2-24 (antibody, human IgG4 S228P, kappa, V domains shown)
VH: QIQLVQSGPEVKKPGETVKISCKASGYTFTTYGMSWVKQAPGKGLKWMGWLNIYSGVPAYADDFKGRFAFSLESSASTAYLQINNLKNEDTATYFCARRENYDGYGMDYWGQGTSVTVSS
VL: DIVMTQSPATLSVTPGDRVSLSCRASQSISDYLHWYQQKSHESPRLLIKYASQSISGIPSRFSGSGSGSDFTLSINSVEPEDVGVYYCQNGHSFPYTFGGGTKLEIKR
As for B6, in the test with human LILRA1 [3], the binding result is on record as “binds”.

B7: LK-RB1-59 (antibody, human IgG4 S228P, kappa, V domains shown)
VH: QIQLVQSGPELKKPGETVKISCKASGYTFTTYGMSWVKQAPGKGLKWMGWINTYSGVPTYADDFKGRFAFSLETSASTAYLQINNLKNEDTATYFCARRRIYYGNKGYAMDYWGQGTSVTVSS
VL: DIQMTQSPASLSVSVGETVTITCRASENIYSNLVWYQQKQGKSPQLLVYTATNLADGVPSRFSGSGSGTQFSLKINSLQSEDFGSYYCQHFWGTPWTFGGGTKLEIKR
notes: as for B2
As for B7, the binding result with human LILRA2 and in the test with human LILRA1 [4] was “binds” in each case.

B8: LK-RB1-5 (antibody, human IgG4 S228P, kappa, V domains shown)
VH: QVQLQQPGAELVKPGASVKLSCKASGYTFTDFWIHWVKQRPGQGLEWIGMIHPNSGSTNFNEKFRAKATLTVDKSSSTAYMRLSSLTSEDSAVYYCARSGDGYSNPMDYWGQGTSVTVSS
VL: QIVLSQSPAILSASPGEKVTLTCRASSSVSYMHWYQQKPGSSPKPWIYATSNLASGVPVRFSGSGSGTSYSLTISRMQTEDAATYYCQQWRRSPYTFGGGTKLEIKR
notes: Anti-LILRB1 antibody
In the case of B8, the EC50 was 1.51 nM in test [1] and 1.16 nM in [2].

B9: LK-RB1-4 (antibody, human IgG4 S228P, kappa, V domains shown)
VH: QVQLQQPGAELVKPGASVKLPCKTSGYTFTSYWMHWVKQRPGRGLEWIGRIDPHYSGTKYNEKFKNKATMTVDTPSSTAYMQLSSLTSEDSAVYYCARFDGDPYYFDYWGPGTTLTVSS
VL: DIVMTQSQKFMSTSVGDRVSVTCKASQNVGTNVAWYKQKAGQSPKAVIYSASYRYSGVPDRFTGSGSGTDFTLSISNVQSEDLAEYFCQQYNNNPFTFGSGTKLEIKR
notes: anti-LILRB1 antibody
On to B9, for which the binding result with human LILRA3 was “binds”.

B10: LK-RB1-47 (antibody, human IgG4 S228P, kappa, V domains shown)
VH: QIQLVQSGPELKKPGETVKISCKASGYTFTTYGMSWVKQAPGKGLKWMGWINTYSGVPTYTDDFKGRFAFSVETSASTAYLQINNLKNEDTATYFCARRERDFYGNIFFPYWGQGSLVTVSA
VL: DIQMTQTTSSLSASLGDRVTISCRASQDISNYLNWYQQKPDGTVKLLIYYTSRIHSGVPSRFSGSGSGTDFSLTISNLDQEDIATYFCQQGHTLPWTFGGGTKVEIKR
notes: as for B2
In the case of B10, the binding result in the test with human LILRA2 and with human LILRA1 [4] was “binds” in each case.

B11: LK-RB2-12 (antibody, human IgG4 S228P, kappa, V domains shown)
VH: QIQLVQSGPELKKPGETVKISCKASGYTFTTYGMSWVKQTPGKGLKWMGWINIYSGVPTYADDFKGRFVFSLEISASTAHLQINNLKNEDTATYFCARRKDYSGHCFDYWGQGTTLTVSS
VL: DIVLTQSPASLAVSPGQRATISCRASESVDTYGISFMHWYQQKPGQPPKLLIYRASNLESGIPARFSGSGSRTDFTLTINPVETDDVAIYYCQQSKKDPYTFGGGTKLEIKR
With B11, the binding result with human LILRA1 [3] and with human LILRB4 was “binds” in each case.

B12: LK-RB2-15 (antibody, human IgG4 S228P, kappa, V domains shown)
VH: QIQLVQSGPELKKPGETVKISCKASGYTFTTYGMSWVKQAPGKGLKWMGWINVYSGVPTYADDFKGRFAFSLEISASTAYLQINNLKDEDTATYFCARRKDYSGHCFDYWGQGTTLTVSS
VL: DIVLTQSPASLAVSLGQRATFSCRASESVDTYGISFMHWYQQKPGQPPKLLIYRASNLESGIPARFSGSGSRTDFTLTINPVETDDVATYYCQQSKKEPYTFGGGTKLEIKR
B12: the binding result in the test with human LILRA1 [3] and with human LILRB4 was “binds” throughout.

B13: LK-RB1-3 (antibody, human IgG4 S228P, kappa, V domains shown)
VH: QVQLQQPGAELVKPGTSVNLSCKASGYTFTSYWIHWVKQRPGRGLEWIGRINPYSSGTRYNEKFKNKATLTVDKPSSTAYMQLTSLTSEDSAVYYCARFDGAPDYFDFWGQGTTLTVSS
VL: DIVMTQSQKFMPTSVGDRVNVTCKASQNVGINVAWYQQKLGQSPKALIYSASYRYSGVPDRFTGSGSGTDFTLTINSVQSEDLADYFCQQYNNYPFTFGSGTKLEIKR
notes: anti-LILRB1 antibody
In the case of B13, the binding result with human LILRA3 is reported as “binds”.

B14: LK-RB1-48 (antibody, human IgG4 S228P, kappa, V domains shown)
VH: EVKLVESGGGLVQPGGSLKLSCAASGFTFSDYYMYWVRQTPEKRLEWVAYISNGGGISFYPDTVKGRFTISRDNAKNTLYLQMSRLKSEDTAIYYCASATKEVGAMDYWGQGTSVTVSS
VL: DIVMTQSQKFLSTTVGDRVSITCKASQNVGTAVAWYQQKPGQSPKILIYSASNRYTGVPDRFTGSGSGTDFTLTISNMQSEDLADYFCQQYSSYRTFGGGTKLEIKR
notes: as for B2
With B14, in the test with human LILRA1 [4], the binding result was “binds”.

B15: LK-RB1-55 (antibody, human IgG4 S228P, kappa, V domains shown)
VH: EVKLVESGGGLVQPGGSLKLSCAASGFTFSDYYMYWVRQTPEKRLEWVAYISNGGDITFYPDTVKGRFTISRDNARSTLYLQMSRLKSEDTAIYYCASATTEVGAMDHWGQGTSVTVSS
VL: DIVMTQSQKFMSTTVGDRVSITCKASQNVGTAVAWYQQKPGKSPKLLIYAASNRYTGVPDRFTGSGSGTDFTLTISNMQSEDLADYFCQQYSSYRTFGGGTNLEIKR
notes: as for B2
As to B15, the binding result with human LILRA1 [4] was “binds”.
